Test results as given in PMC4072576.

Target: FLAG-ctxIII coexpressed in E. coli with His-ctxI or His-ctxII (Dictyostelium discoideum)
Experiment: AUC

Sequence of His-ctxI (recombinant N-terminal His-tagged cortexillin I) (Q54HG2 whole entry): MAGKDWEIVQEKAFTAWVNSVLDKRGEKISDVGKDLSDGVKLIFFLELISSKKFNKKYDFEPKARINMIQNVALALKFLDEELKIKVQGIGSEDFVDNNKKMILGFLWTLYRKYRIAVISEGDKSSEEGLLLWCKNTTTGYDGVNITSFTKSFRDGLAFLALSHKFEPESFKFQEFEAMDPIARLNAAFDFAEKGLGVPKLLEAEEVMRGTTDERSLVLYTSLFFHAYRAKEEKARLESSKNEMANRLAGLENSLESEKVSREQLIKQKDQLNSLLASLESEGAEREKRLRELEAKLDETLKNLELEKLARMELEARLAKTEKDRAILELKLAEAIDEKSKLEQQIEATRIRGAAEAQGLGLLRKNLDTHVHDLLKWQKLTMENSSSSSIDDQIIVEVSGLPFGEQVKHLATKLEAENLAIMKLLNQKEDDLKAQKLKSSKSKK
Sequence of His-ctxII (recombinant N-terminal His-tagged cortexillin II) (Q550R2 whole entry): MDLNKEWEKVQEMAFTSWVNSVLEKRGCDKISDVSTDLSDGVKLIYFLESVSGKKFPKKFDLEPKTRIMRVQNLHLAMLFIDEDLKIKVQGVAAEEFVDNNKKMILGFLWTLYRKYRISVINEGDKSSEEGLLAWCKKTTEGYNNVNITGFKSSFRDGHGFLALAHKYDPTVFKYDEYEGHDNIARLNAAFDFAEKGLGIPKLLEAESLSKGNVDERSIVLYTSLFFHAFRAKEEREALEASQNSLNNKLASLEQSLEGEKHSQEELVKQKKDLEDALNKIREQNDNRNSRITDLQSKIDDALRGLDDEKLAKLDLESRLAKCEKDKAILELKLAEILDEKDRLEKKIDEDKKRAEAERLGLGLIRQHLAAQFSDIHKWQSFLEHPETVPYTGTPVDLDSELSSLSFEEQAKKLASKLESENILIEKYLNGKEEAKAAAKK

| Substance | major peak (heterodimer), percent of total protein |
| --- | --- |
| His-ctxI (recombinant N-terminal His-tagged cortexillin I) (from UniProt Q54HG2 1-444) (natural protein) | 60% |
| His-ctxII (recombinant N-terminal His-tagged cortexillin II) (from UniProt Q550R2 1-441) (natural protein) | 70% |
